Experimental findings from patent US5565354 (Sandoz Ltd., dated 1996) are described below.

Assay [1] has as its target serum-derived variant HBsAg of Patient #2 (hepatitis B virus). The experiment in a line: sandwich RIA, PE1-1 solid-adsorbed and ZM1-2 125I-labelled, patient serum HBsAg.
Assay [2] deals with serum-derived variant HBsAg, sample 'Patient #4 (251)' (hepatitis B virus). The assay is described as above.
For assay [3], the target named is serum-derived variant HBsAg, sample 'Patient #3 (264)' (hepatitis B virus). The assay is described as above.
In assay [4] the target is HBsAg of control HBsAg-positive serum (hepatitis B virus). The experiment in a line: sandwich RIA, PE1-1 solid-adsorbed and ZM1-2 125I-labelled; the control itself.
In assay [5] the target is T1, HBsAg subtype ayw (hepatitis B virus, UniProt P03138). As to the kind of experiment: inhibition ELISA, soluble HBsAg ayw pre-incubated with antibody, HBsAg-coated well, 37 C. On the technique in general: ELISA stands for enzyme-linked immunosorbent assay.
The target of assay [6] is hepatitis B surface antigen (HBsAg), preparation and subtype not stated (hepatitis B virus). The experiment in a line: AUSAB radioimmunoassay (Abbott), compared on a weight basis.
The target of assay [7] is T1, HBsAg subtype ayw. The experiment in a line: solid phase RIA, 125I-labelled antibody on solid adsorbed HBsAg ayw, room temperature.
The target in assay [8] is HBsAg of control HBsAg-positive serum (hepatitis B virus). As to the kind of experiment: sandwich RIA, solid-adsorbed and 125I-labelled ZM1-2; the control itself.
The target of assay [9] is serum-derived variant HBsAg of Patient #2 (hepatitis B virus). As to the kind of experiment: sandwich RIA, solid-adsorbed and 125I-labelled ZM1-2, patient serum HBsAg.
Assay [10] has as its target serum-derived variant HBsAg, sample 'Patient #4 (251)' (hepatitis B virus). The assay is described as above.
The target of assay [11] is serum-derived variant HBsAg, sample 'Patient #3 (264)' (hepatitis B virus). The description is as above.
Assay [12] concerns the target HBsAg in serum from a hepatitis B positive patient (hepatitis B virus).

Usually IC50 stands for the concentration that inhibits the measured activity by half. The low end stands for greater potency, the high end for weaker potency.

B1: human monoclonal antibody PE1-1 (antibody, V domains shown)
VH: QVQLVESGGGVVQPGRSLRLSCAASGFTFSRYGMHWVRQAPGKGLEWVAVISYDGSNKWYADSVKGRFTISRDNSKNTLFLQMHSLRAADTGVYYCAKDQLYFGSQSPGHYWVQGTLVTVSS
VL: QSQLTQPPSVSVAPGQTARITCGGDNIGSKSVNWFQQKPGQAPVLVVYDDNERPSGISERFSGSNSGNTATLTISRVEAGDEADYYCQVWDSSSDHVVFGGGTKLTVL
For B1, the relative reactivity (relative to control) in assay [1] is 0.07; in assay [2] it was 0.024; in assay [3], 0.173; in assay [4], 1. Besides, the Ka in the assay with HBsAg subtype ayw [5] is around 2e+09 M⁻¹; with HBsAg subtype ayw [7], 3.6e+09 M⁻¹. For the same molecule, the potency relative to the Bureau of Biologics reference hepatitis B immune globin in assay [6] worked out at 435 times. In assay [6], the potency relative to the commercial hepatitis B immune globulin preparations is above 200 times.

B2: human monoclonal antibody ZM1-2 (antibody, V domains shown)
VH: QVQLQESGPGLVKAAETLSLTCTVSRGSFSDYFWNWFRQPAGKRLEWLGRVYTSGSVDYNPSLKSRVTVSVDTSKKQFSLRLSSVTVADTAVYYCARGLSGFDYWGQGALVTVSP
VL: DIQMTQSPSSVSASVGDRVTVTCRASQGISSWLAWYQQKPGKAPKLLIHAASSLQSGVPSRFIGSGSGTDFTLTITSLQAEDFATYYCQQADSLPFTFGGGTKVDFKR
As for B2, the relative reactivity (relative to control) in assay [8] is 1; in assay [9], 0.233; in assay [10] it was 0.01; in assay [11] it was 0.179. For the same molecule, the Ka with HBsAg subtype ayw [5] was around 7e+08 M⁻¹; with HBsAg subtype ayw [7], 1.5e+09 M⁻¹. The IC50 in [12] worked out at 0.076 µg/mL.

B3: human monoclonal antibody ZM1-1 (antibody, V domains shown)
VH: EVQLVESGGGLVQPGGSLRLSCAASGFTFSRYDMYWVRQATGKGLEWVSAIGPTGDTYYADSVKGRFTISRENAKNSLYLTMNGLRAGDTAVYYCARDLELWGQGTLVTVSS
VL: DVVVTQSPLSLPVTLGQPASISCRSSLSLVDSDGNTYLNWFLQRPGQSPRRLIYQLSSRDSGVPDRFSGSGSGTDFTLKISRVEAEDVGVYYCMQGTHWPITFGQGTRLEIKR
As to B3, the Ka in the assay with HBsAg subtype ayw [5] is around 1e+08 M⁻¹; with HBsAg subtype ayw [7], 5e+09 M⁻¹.
